# Reference: publication PMC3274521, “Effects of a Non-Conservative Sequence on the Properties of β-glucuronidase from Aspergillus terreus Li-20” (PLoS ONE, 2012)
# Test system: CC1(C)[C@@H](O[C@H]2O[C@H](C(=O)O)[C@@H](O)[C@H](O)[C@H]2O[C@@H]2O[C@H](C(=O)O)[C@@H](O)[C@H](O)[C@H]2O)CC[C@]2(C)[C@H]3C(=O)C=C4[C@@H]5C[C@@](C)(C(=O)O)CC[C@]5(C)CC[C@@]4(C)[C@]3(C)CC[C@@H]12
# Test: purified protein
# Settings: GL 0.375 to 4 mM, assay pH and temperature not stated for kinetics (optimum pH 6.6, 55 °C)
substance,measurement,value
AtGUS-E (AtGUS) (Aspergillus terreus NIH2624),Km,12.9 mM
same,Vmax,1.84 µmol/min/mg
same,kcat,29 s⁻¹
same,kcat/Km,2240 M⁻¹ s⁻¹
